Measured values taken from patent publication US20050221381A1, “Method for isolating ligands” (priority 2002, published 2005).
Entries after “also recorded” stand apart in the source; their conditions may differ. Like-named read-outs stand apart in the source and are kept apart here.

Columns and labels:
[1] = biological target: T1, soluble DRB1*0401 molecules (DR4) (Homo sapiens, UniProt P01903+P01911, A100K/A169T/F76Y/I96L/K127E/L162R/M171V/N62H/P40V/Q125Y/R42H/S133A/S149N/S66Y/V115G/V209L/W38E); format: binding; design: key: +++: high binding affinity; ++: moderate binding affinity; +: low binding affinity; −: no binding; settings: individual pp65 15mer, SDS-stability assay
T1 construct: Soluble HLA class I A*0201 and HLA class II DRA1*0101/DRB1*0101/Ii, DRA1*0101/DRB1*0401/Ii and DRA1*0101/DRB1*0404/Ii molecules were expressed in SC-2 cells; made in house; host or cells: SC-2 cells

[2] = biological target: T2, soluble DRB1*0101 molecules (Homo sapiens, UniProt P01903+P01911, A100R/D57E/F55L/F60I/F76Y/I96L/L162R/M171V/P40L/Q125E/R42F/V115G/Y59C); test: Peptide binding assay, SDS-stability assay; design: key: +++: high binding affinity; ++: moderate binding affinity; +: low binding affinity; −: no binding; settings: individual pp65 15mer
T2 construct: Soluble HLA class I A*0201 and HLA class II DRA1*0101/DRB1*0101/Ii, DRA1*0101/DRB1*0401/Ii and DRA1*0101/DRB1*0404/Ii molecules were expressed in SC-2 cells; made in house; host or cells: SC-2 cells

[3] = biological target: T1, soluble DRB1*0401 molecules (DR4); format: binding; design: key to DR4 binding: +++: high binding affinity; ++: moderate binding affinity; +: low binding affinity; −: no binding; key to Binding to DRB1 *0401: −: no binding/T cell response; +/−: weak binding/T cell response; +: intermediate binding/T cell response; ++: strong binding/T cell response; settings: for Binding to soluble DRB1*0401 molecules (in words): SDS-stability assay; for Binding to DRB1 *0401: soluble DRB1*0401 molecules
[4] = biological target: DRB1*0701 (Homo sapiens, UniProt P01903+P01911, A100R/A102G/A103Q/D57E/D86V/E43K/F76Y/K127E/L162R/M171V/P40G/Q125H/Q99D/R33Q/R42Y/R54Q/S133A/S66F/T210M/V115G/Y107V/Y59L/Y89S); test: Peptide-competition assay with biotinylated CLIP peptide (ELISA); format: binding; design: key: −: no binding/T cell response; +/−: weak binding/T cell response; +: intermediate binding/T cell response; ++: strong binding/T cell response
Protocol: (§1) The binding affinities to DRB1*0701 and DRB1*1101 were tested by a peptide-competition assay (Reay et al., 1992). Briefly, binding of the biotinylated CLIP peptide (reference peptide) has been used for monitoring of HLA:peptide complex formation. […] In the case of lower affinity peptides they should be added in excess to the reference peptide to compete for occupancy of HLA binding grove. […] Alternatively, comparing of the amount of reference peptide bound to HLA molecules in the presence or absence of competitor peptide one can determine the binding activity of the peptide of interest.
(§2) In the present peptide-competition assay conditions of peptide binding were similar to described above. Soluble HLA molecules were used in the concentration of 0.5 μM and biotinylated CLIP was added to all samples in the final concentration of 2 μM. Competitor peptides were added in three different concentrations: 0.25, 5 and 100 μM. Binding reaction was performed in PBS buffer (pH 7.4) for 18 hours at 37° C. […] Briefly, MaxiSorb 96-well plates (Nunc, Denmark) were coated with mouse anti-αβ antibody L243 (purified from ATCC HB-55) by overnight incubation with 50 μl of 10 μg/ml dilution in PBS at 4° C. Non-specific binding to the plastic was blocked by incubation with T-PBS containing 3% of BSA for 2 hours at 37° C. and binding reactions were then “captured” for 2 hours at room temperature. […] The optical density at 405 nm was measured on a microplate reader SUNRISE (Tecan).

[5] = biological target: DRB1*1101 (Homo sapiens, UniProt P01903+P01911, A100R/A169T/A87E/I96F/K41T/L162R/M171V/P40S/Q125H/Q178H/Q39Y/Q99D/R42S/S66Y/T262R/V115G/W38E); test: as above; format: binding; design: key: −: no binding/T cell response; +/−: weak binding/T cell response; +: intermediate binding/T cell response; ++: strong binding/T cell response; settings: for Binding to DRB1*1101: longer peptides no. 1500-1505, peptide-competition assay
Protocol: as §1, §2

[6] = system: HLA-DRB1*0401-transgenic mice splenocytes; format: in vivo, mouse; design: key to DRB1*0401 mice total SC (T cell response) / DRB1*0401 mice CD4+ (T cell response): −: no binding/T cell response; +/−: weak binding/T cell response; +: intermediate binding/T cell response; ++: strong binding/T cell response; settings: for Immunogenicity in DRB1*0401-transgenic mice (in words): INF-gamma ELISpot (FIG. 12)
[7] = biological target: T1, soluble DRB1*0401 molecules (DR4); format: binding; design: key: −: no binding/T cell response; +/−: weak binding/T cell response; +: intermediate binding/T cell response; ++: strong binding/T cell response; settings: longer peptides no. 1500-1505
[8] = biological target: T3, soluble DRB1*0404 molecules (Homo sapiens, UniProt P01903+P01911, A100R/A169T/F76Y/I96L/K127E/L162R/M171V/N62H/P40V/Q125Y/R42H/S133A/S149N/S66Y/V209L/W38E); test: Peptide binding assay, SDS-stability assay; design: key: −: no binding/T cell response; +/−: weak binding/T cell response; +: intermediate binding/T cell response; ++: strong binding/T cell response
T3 construct: Soluble HLA class I A*0201 and HLA class II DRA1*0101/DRB1*0101/Ii, DRA1*0101/DRB1*0401/Ii and DRA1*0101/DRB1*0404/Ii molecules were expressed in SC-2 cells; made in house; host or cells: SC-2 cells

[9] = biological target: T2, soluble DRB1*0101 molecules; test: Peptide binding assay, SDS-stability assay; design: key: −: no binding/T cell response; +/−: weak binding/T cell response; +: intermediate binding/T cell response; ++: strong binding/T cell response
[10] = biological target: T4, soluble DRB1*0401 molecules (Homo sapiens, UniProt P01903+P01911, A100K/A169T/F76Y/I96L/K127E/L162R/M171V/N62H/P40V/Q125Y/R42H/S133A/S149N/S66Y/V115G/V209L/W38E); test: Epitope capture from peptide mixtures, gel filtration and MALDI-TOF MS of bound peptides; format: binding
T4 construct: Soluble HLA class I A*0201 and HLA class II DRA1*0101/DRB1*0101/Ii, DRA1*0101/DRB1*0401/Ii and DRA1*0101/DRB1*0404/Ii molecules were expressed in SC-2 cells; made in house; host or cells: SC-2 cells
Excerpt: After peptide binding reaction with soluble HLA molecules, HLA-peptide complexes were separated from free peptides by gel-filtration chromatography on Superdex-200 column (AKTAdesign, Amersham Pharmacia Biotech). HLA-containing fractions were collected, and bound peptides were reconstituted from the complexes by adding TFA to the final concentration of 1%. Peptides were desolted by Ziptip purification and analyzed by MALDI-TOF mass-spectrometry.
Second, the ability to capture peptides binding to HLA class II molecules from the mixture of two high affinity ligands was tested. The binding reaction contained 1 μM of soluble DRB1*0401 molecules and 5 μM of each YAR and 1242 peptide. After the HLA-peptide complexes were formed, they were separated from the excess of free peptides by gel filtration chromatography. Fractions containing MHC molecules were collected. Bound peptides were eluted from the complexes and analyzed by mass-spectrometry.
Third, it was investigated if the binding capacity of the high affinity ligand would be influenced by the excess of low affinity peptide. […] Peptide binding was assessed by SDS-stability assay and verified by MS analysis (FIG. 3).
The final concentration of each peptide in binding reaction was 5 μM, except 1236 added in 55 μM, meaning that the concentration of each individual binding peptide was 20-fold lower than final concentration of all peptides. DRB1*0401 molecules were added to 1 μM. The formation of MHC-peptide complexes was evaluated as described above, using single peptides as controls (FIG. 4). […] The result of this analysis yielded the two peptides with highest binding affinities: 1242 and YAR (see Table 1). The peptides with moderate and/or low affinities were not found in the complexes, probably due to the high concentration of strong competitors used in this assay.

[11] = longer peptides no. 1500-1505, peptide-competition assay
[12] = CD4+ fraction of splenocytes, IFN-γ ELISpot
[13] = IFN-gamma ELISpot, enriched CD4+ fraction of splenocytes of HLA-DR4 transgenic mice vaccinated with the longer peptide, ex vivo re-stimulation
[14] = IFN-gamma ELISpot, total splenocytes of HLA-DR4 transgenic mice vaccinated with the longer peptide, ex vivo re-stimulation
[15] = total splenocytes, ex vivo restimulation, IFN-γ ELISpot

Sequence	Binding to DRB1 *0401 [3]	Binding to DRB1 *0701 ([4]; DRB1*0701)	Binding to DRB1 *0701 [4, 11]	Binding to DRB1 1101 [5]	Binding to DRB1*1101 [5]	DRB1*0401 mice CD4+ (T cell response) [6, 12]	DRB1*0401 mice CD4+ (T cell response) [6, 13]	DRB1*0401 mice total SC (T cell response) [6, 14]	DRB1*0401 mice total SC (T cell response) [6, 15]	Binding to DRB1*0401 [7]	Binding to DRB1*0404 ([8]; longer peptides no. 1500-1505)	Binding to DRB1*0404 ([8]; soluble DRB1*0404 molecules)	Binding to DRB1*0101 ([9]; longer peptides no. 1500-1505)	Binding to DRB1*0101 ([9]; soluble DRB1*0101 molecules)	other results
EPMSIYVYALPLKML [Peptide 107]															Binding to DRB1*0401 [1]: −; Binding to DRB1*0101 [2]: −
IYVYALPLKMLNIPS [Peptide 111]															Binding to DRB1*0401 [1]: −; Binding to DRB1*0101 [2]: −
QGQNLKYQEFFWDANDIYRIF [Peptide 1505]	+	−	−	−	−	++	++	++	++	+/−	−	−	−	−	Binding to soluble DRB1*0401 molecules (in words) [3]: not so good in binding assay; Immunogenicity in DRB1*0401-transgenic mice (in words) ([6]; total splenocytes): highest frequency of T cells
QWKEPDVYYTSAFVFPTKDVALR [Peptide 1501]	+	−	−	+	+/−	+	+	+	+	+	−	−	++	++	
TSGVMTRGRLKAESTVAPEEDTDE [Peptide 1504]	+	−	−	+	+	++	++	+	+	+		++	+	+	
YARFQSQTTLKQKT [reference compound]															DR4 binding [3]: +++; Peptides captured from pool of 10 peptides, MS analysis ([10]; each peptide 5 μM, 1236 55 μM, DRB1*0401 1 μM): captured by DR4 molecules; Peptides found in complexes with MHC molecules by MS ([10]; mixture of two ligands, 5 μM each, 1 μM DRB1*0401): revealed in the complexes with MHC molecules
YRHTWDRHDEGAAQGDDDVW [Peptide 1503]	+/−	−	−	−	−	−	−	−	−	+/−	−	−	−	−	Binding to soluble DRB1*0401 molecules (in words) [3]: weak affinity; Immunogenicity in DRB1*0401-transgenic mice (in words) ([6]; total splenocytes): did not induce immune response; also recorded: not immunogenic
